One may read the AUC as concentration integrated over time.

A short description of series [1]: Repeat-dose intravenous administration in cynomolgus monkey. Format: in vivo. How it is done:
The monkey used in this study was purpose-bred, treatment-naïve, and housed and treated at Charles River Laboratories in Reno, Nev., in accordance with US FDA GLP regulations. The target age and weight of the animal at time of dosing was 2 to 4 years and 2.5 to 3.5 kg, respectively, and the animal used on study was female. HER2-TLR8 was evaluated on a repeat dose schedule as follows: 1 mg/kg was dosed on Day 1, followed by a 7.5 mg/kg dose administered one week later on Day 8 and a third 7.5 mg/kg dose administered three weeks later on Day 29. After each dose, the animal was observed cage-side for clinical signs and symptoms associated with dosing. […] This animal was euthanized due to the rapid onset of clinical signs of pale mucus membranes and face, hunched posture, decreased activity, hypothermia (as assessed by being cool to the touch), and labored, shallow breathing. These clinical signs presented within 2.5 hour following dosing on Day 29.

The nature of series [2]: Repeat-dose subcutaneous administration in cynomolgus monkey. Format: in vivo. Particulars: SC. How it is done: The monkey used in this study was purpose-bred, treatment-naïve, and housed and treated at Charles River Laboratories in Reno, Nev., in accordance with US FDA GLP regulations. The target age and weight of the animal at time of dosing was 2 to 4 years and 2.5 to 3.5 kg, respectively, and the animal used on study was female. HER2-TLR8 was evaluated on a repeat dose schedule as follows: 2 mg/kg dose was subcutaneously administered on a Q2W dosing schedule over 4 dosing cycles, 6 mg/kg was subcutaneously administered on a Q3W dosing schedule over 4 dosing cycles and 12 mg/kg was subcutaneously administered on a Q3W dosing schedule over 4 dosing cycles. After each dose, the animal was observed cage-side for clinical signs and symptoms associated with dosing.

The test system of another series is C-reactive protein (CRP). The experiment in a line: Pharmacodynamic response (CRP) after repeat SC dosing in non-human primates. The series is classed as in vivo, cynomolgus monkey. The following applies: repeat-dose SC, 2, 6 and 12 mg/kg. The source says:
Blood samples were collected by venous puncture at various timepoints and analyzed for blood chemistries, including C-reactive protein (CRP), using a standard blood analyzer.

A short description of series [3]: Single-dose pharmacokinetic profile in cynomolgus monkey (serum ELISA). Format: in vivo. How it is done:
The pharmacokinetic profile of a single dose of HER2-TLR8 administered subcutaneously at 2, 6, or 12 mg/kg or intravenously at 7.5 mg/kg in cynomolgus monkey was studied. Blood was collected by venous puncture at a series of timepoints pre and post-dosing. Serum was prepared and HER2-TLR8 was measured by an ELISA assay in which serum samples were added to an assay plate coated with recombinant HER2 and HER2-TLR8 was detected using a labelled antibody directed against the TLR8 payload.
(An ELISA detects its analyte on a solid surface through an enzyme-linked reagent.)

For series [4] the following is noted: 10 μg per mouse, 5 minutes following second dose of HER2-TLR7 5 mg/kg.
Procedure: Rectal temperatures and clinical scores were assessed as previously shown.
Another series relates to BMDM + SK-BR-3 (HER2pos). As to the kind of experiment: mTNFα from bone marrow derived macrophages co-cultured with SK-BR-3. Format: cell-based, mouse. The following applies: 24 hours; conjugate 100-0.001 nM, payload 1000-0.001 nM; HER2pos SK-BR-3. The procedure:
(§1) The ability of an anti-HER2-TLR7 conjugate to specifically activate mouse macrophages when bound to tumor cells by HER2 was assessed in vitro as follows. Bone marrow cells were harvested from BALB/cJ mouse femurs and tibias using a 27-gauge needle attached to a 3 mL syringe filled with growth media (DMEM supplemented with 10% Fetal Bovine Serum, 1 mM Sodium Pyruvate, 1× GlutaMAX-1, 1× Non-Essential Amino Acids, 10 mM HEPES and 0.5% Penicillin/Streptomycin). Bone marrow cells were centrifuged, and RBC were lysed before being counted and resuspended at a concentration 5×10^5/mL in growth media. Ten mL of cell suspension was placed in 10 cm dishes and 20 ng/mL murine macrophage-colony-stimulating factor (mM-CSF) was added. […] Bone marrow derived macrophage cells lines (BMDM) and tumor cell lines SK-BR-3 (HER2pos) or MDA-MB-468 (HER2neg) were removed from plates with Accutase cell detachment solution and counted. […]
(§2) After culture, supernatants were collected and frozen at −80° C. until cytokine analysis was performed. Murine TNFα (mTNFα) levels in the supernatant were determined by mTNFα ELISA Kit (BioLegend) and read on an Envision Plate Reader (Perkin Elmer, Waltham, Mass.) according to manufacturer's instructions. mTNFα levels were then graphed using GraphPad Prism 7.01 software (GraphPad Software, San Diego, Calif.) and EC50 values were generated using non-linear regression curve fit.

Series [5] relates to BMDM + MDA-MB-468 (HER2neg). As to the kind of experiment: mTNFα from bone marrow derived macrophages co-cultured with MDA-MB-468. The series is classed as cell-based, mouse. The following applies: 24 hours; conjugate 100-0.001 nM, payload 1000-0.001 nM; HER2neg MDA-MB-468. How it is done: as §1, §2

On to `CCCN(CCC)C(=O)C1=Cc2ccc(C(=O)Nc3cnc4c(c3)CN(C(=O)OCc3ccc(NC(=O)[C@H](CCCNC(N)=O)NC(=O)[C@@H](NC(=O)CCCCCN5C(=O)C=CC5=O)C(C)C)cc3)CC4)cc2N=C(N)C1` [HER2-TLR8], for which the “anaphylaxis-like response after the first two doses” value in series [1] (IV bolus, 1 mg/kg Day 1 and 7.5 mg/kg Day 8) is “did not produce an anaphylaxis-like response”. In addition, the “outcome of the third intravenous dose” value in series [1] (IV bolus, 7.5 mg/kg Day 29) is “resulted in mortality”. For the same molecule, in series [1] (third IV dose, 7.5 mg/kg Day 29), the “time to presentation of clinical signs following dosing” value is at most 2.5 h. Moreover, the tolerability entry in series [2] (2 mg/kg Q2W, 6 mg/kg Q3W, 12 mg/kg Q3W, 4 dosing cycles) was “well-tolerated at all dose levels and through all dosing cycles”. For the same molecule, the “clinical anaphylaxis-like signs or symptoms” value in series [2] (first or repeat dose at any dose level (2, 6, 12 mg/kg)) is reported as “No clinical, anaphylaxis-like signs or symptoms were observed”. In the series on C-reactive protein (CRP), the “C-reactive protein (CRP) in blood” value was “consistent, modest elevation of C-reactive protein (CRP) with each dosing cycle”. The AUC in series [3] (7.5 mg/kg, IV, 7.5 mpk) came to 3770 µg·h/mL; in series [3] (subcutaneous, 2 mg/kg, SubC, 2 mpk) it was 714 µg·h/mL; in series [3] (subcutaneous, 6 mg/kg, SubC, 6 mpk), 2400 µg·h/mL; in series [3] (subcutaneous, 12 mg/kg, SubC, 12 mpk) it was 3650 µg·h/mL.
Turning to `CNC[C@H](O)c1ccc(O)c(O)c1` [epinephrine], the “effect on toxicity of second IV dose of HER2-TLR7” value in series [4] is recorded as “mitigates the toxicity”.
On to `CCOCc1nc2c(N)nc3ccccc3c2n1CC(C)(C)OCCNC(=O)C(C)(C)N` [TLR7 payload compound], for which the “activation of macrophages (mTNFα in supernatant)” value (in the series on BMDM + SK-BR-3 (HER2pos); in series [5]) was “capable of potently activating the macrophages in the presence of both cell lines” throughout.

Values taken from US20200113912A1, “Methods and Compositions for the Treatment of Disease with Immune Stimulatory Conjugates” (Silverback Therapeutics, Inc., priority 2018, published 2020).
